The target of one test is T1, ECF02_2817.
T1 chain: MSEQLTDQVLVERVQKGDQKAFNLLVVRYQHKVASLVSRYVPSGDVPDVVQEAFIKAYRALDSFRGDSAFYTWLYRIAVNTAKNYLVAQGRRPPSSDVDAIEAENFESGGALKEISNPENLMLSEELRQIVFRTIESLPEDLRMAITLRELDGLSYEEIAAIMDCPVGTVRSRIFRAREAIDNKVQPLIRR

The next test concerns the target T2, ECF04_1609.
T2 chain: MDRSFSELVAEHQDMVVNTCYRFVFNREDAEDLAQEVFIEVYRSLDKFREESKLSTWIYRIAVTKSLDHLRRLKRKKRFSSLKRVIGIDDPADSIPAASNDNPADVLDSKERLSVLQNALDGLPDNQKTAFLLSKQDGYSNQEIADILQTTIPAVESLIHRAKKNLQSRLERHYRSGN

In the next test the target is T3, ECF15_524.
T3 chain: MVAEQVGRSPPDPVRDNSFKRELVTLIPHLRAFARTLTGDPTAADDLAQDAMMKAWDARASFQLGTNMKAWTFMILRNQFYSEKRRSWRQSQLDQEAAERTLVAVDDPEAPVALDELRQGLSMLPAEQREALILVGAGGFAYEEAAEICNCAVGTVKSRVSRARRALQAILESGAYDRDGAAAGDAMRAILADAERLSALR

A further test has as its target T4, ECF25_1645.
T4 chain: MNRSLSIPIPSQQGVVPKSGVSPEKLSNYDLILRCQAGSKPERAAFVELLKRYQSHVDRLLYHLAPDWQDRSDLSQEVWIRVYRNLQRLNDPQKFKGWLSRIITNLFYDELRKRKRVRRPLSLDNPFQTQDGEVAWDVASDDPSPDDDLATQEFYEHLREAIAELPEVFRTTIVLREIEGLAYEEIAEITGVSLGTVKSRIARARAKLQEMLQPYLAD

Another test addresses T5, ECF33_375.
T5 chain: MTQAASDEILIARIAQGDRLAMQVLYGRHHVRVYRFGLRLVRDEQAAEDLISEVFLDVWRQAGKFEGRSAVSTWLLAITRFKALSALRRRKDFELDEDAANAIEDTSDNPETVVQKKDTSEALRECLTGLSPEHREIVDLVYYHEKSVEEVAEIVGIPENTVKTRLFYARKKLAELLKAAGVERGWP

This is an account of results in article PMC3817407.

B1: AS30_35 (protein)
chain: MDKRLQQLREEYKNVQIPKELDIIVEKALQQEPKKKRIVMWPTSAAIAAAILFTALVNINPDAAQAMSKIPVIGKIVKAITFIEIKEEKDQSSIDVKTPALSGLSNKELENSINEKYLKESQQLYKEFIQSTSKNKKGHLSIYSDYETVTDTPDLLSIRRNIETTQASSYTQSRYITIDKKNDILLTLKSLFKDERYIKVISQNIKEQMKQQMKEDPNKIYWLTDEDAEPFKTILPDQTFYITEDHKLVISFDEYEVAPGYMGVTEFTIPTGVISNLLVGERYIR
On to B1, for which the fold repression in the test with ECF02_2817 was determined as 1.56; with ECF04_1609 it was 2.43; with ECF15_524, 1.74; with ECF25_1645 it was 1.69; in the test with ECF27_1331 it was 2.39; in the test with ECF33_375, 1.3.

B2: AS27_1331 (protein)
chain: MSAADKDPDKHSADADPPLTVELLADLQAGLLDDATAARIRSRVRSDPQAQQILRALNRVRRDVAAMGADPAWGPAARPAVVDSISAALRSARPNSSPGAAHAARPHVHPVRMIAGAAGLCAVATAIGVGAVVDAPPPAPSAPTTAQHITVSKPAPVIPLSRPQVLDLLHHTPDYGPPGGPLGDPSRRTSCLSGLGYPASTPVLGAQPIDIDARPAVLLVIPADTPDKLAVFAVAPHCSAADTGLLASTVVPRA
With B2, the fold repression in the test with ECF02_2817 was determined as 2.82; with ECF04_1609 it was 5.65; in the test with ECF15_524, 3.38; in the test with ECF25_1645, 3.12; with ECF27_1331, 3.32; in the test with ECF33_375, 4.75.

B3: AS38_1322 (protein)
chain: MSDGNDARPDARDGHDPGSDARDGHDPGSHARDGHDPGAGPFDGHGPGSDAGDGDDAGPDARDGHGAPAGPAGREQRKHPHDTHDMHDTHDTHAGKGTVNHGPAAQGPDAPGADGPATDEAALRAMMQRAVREMEPSDGTLEHLRRAVPARRARKRQALVGAAAAALFLGTAVPALVHVSNATGAGADPSVAGNASQAQGGASQGKDPAGGQSGVAGTGDTPEDRDKADPKETPGGKEPGAATGAPPSGVPSASSPADVPACAPGSLGPAVASSAEPDSTGVVYGSFRVTNVSSDGCTVTGPGTVVTASLGAAEATRIGTARHAAGDAAAGLPDPSLETASLALAPGAAYEVQFAWVPSETCPTTGGTTGGGSGGPSPDPSPTADTTAAGGTSAGGGEAGPTTQLITEDGPAEGSVSVTYTPEGGSGSATATVSNACAGTVYWTGLLADSGSGA
Regarding B3, the fold repression with ECF02_2817 came to 4.35; with ECF04_1609, 4.63; with ECF15_524, 4.95; with ECF25_1645, 3.94; with ECF27_1331 it was 5.61; in the test with ECF33_375 it was 3.13.

B4: AS33_375 (protein)
chain: MMALSKKMLEQEPSEIELLLPWHAAGTLNARDARRVEDALARDPELAKQYAAIRGEYEETIHLNESLGAPSARAMQKLFGAIDAEPARETGSLPLSARIATFFASLSPRTLAWSASLGAVALVLQAGIIGAVLMKTQPTTFQTASLSTSAPITRELGAAVAPARALVRFTPEARVADITALLDSYQASIIGDAKGGMFRLQFDKAMSQDELASLLGRMQREKFVNLAVAAP
Take B4: the fold repression in the test with ECF02_2817 came out at 5.75; with ECF04_1609 it was 11.1; with ECF15_524 it was 14.3; in the test with ECF25_1645, 5.35; with ECF27_1331, 11.4; with ECF33_375 it was 152.

B5: AS25_1643_cl43 (protein)
chain: MTTDSNFNDPCRRQFSRDLPQKMARHTNEATGAMDMVKRDRFELLSAYLGGEVTAAERRQVEDWPANDVAVQRLYSRLLKLRQGIRTMPIPTAQQSPETTAEQVFAKVNRRSRLAWKLGGAAVAACVIGAVTNWLPGRQTGIPQLAQQPQEQPTQAVTTPDALPMIALNNPVIEIPKAAVASPTKFIQPQPQLGEIPPDIN
Consider B5, for which the fold repression in the test with ECF02_2817 is 4.05; with ECF04_1609, 2.44; with ECF15_524, 1.18; with ECF25_1645, 7.28; in the test with ECF27_1331, 1.96; with ECF33_375, 0.709.

B6: AS35_3582 (protein)
chain: MNPQKHSASVAEEQMLAHFRAHAPQQPAPALDQAILAAARRQAAHVEPARSWWRRWLEASRRPRWQAAFASLLGVALVLGLVSHNVLDDAERQARPEVAFSDVPLRDGVAGAAAAKRAMRAPAAPAPLSGEMSEPPALLASYASSGEAPQLMAEAAPPAPAALADRPPAQAAQQAKVQAALAGDFVAQARGKAVAVKPEVLDEALGAVLALREQGKTEQAATQLAELQKRFPGENLVERLERLATIAASARKRP
In the case of B6, the fold repression came out at 6.36 with ECF02_2817; 6.84 with ECF04_1609; 5.37 in the test with ECF15_524; 3.79 in the test with ECF25_1645; 7.23 with ECF27_1331; 2.9 in the test with ECF33_375.

B7: AS33_423 (protein)
chain: MMAMSNTMPDPREPGDVEALLPWYAAGTLNARDARRVADALDRDPALARQYAVILEEYASTIELNESLGAPSSRAMQKLFAAIDAEPARAPGAGQGLGARFAGFFAGLSPKALAWSASVAGLALLLQAGLIGALLTWPHAAPVQTAAYQPQREVARAPASSPAPATVSPPAAAMADRAADAGKSTPPMVMAERSGGPVVRSLAPQSGPRVLVKFAPEARASEIAALLDQYNAVVVDSSRGGLFRLQFGTQSLSKQDQETLIGRLQKEPVVSVVLSAP
Regarding B7, the fold repression with ECF02_2817 was determined as 5.47; with ECF04_1609, 6.18; in the test with ECF15_524, 9.15; with ECF25_1645, 3.68; with ECF27_1331, 8.68; with ECF33_375, 114.

B8: AS25_1645 (protein)
chain: MNESFSQRQTDGDRRRGGDLEMKKNHTSHQHHTDSETPMGHNFEQFQRLSAYFDGEATPAERKEIQHLLDTDPQVKQQYQQLRQLKQALQLLPIPTSISAQYLGQRVLARLRRSQLRTLSLWGSGAIAALFVAGVMGQMPRLNFDRFAKNDPDQQPTAALVETSPQGEEALVVALNRPVLQIPKLATTESP
In the case of B8, the fold repression turned out to be 9.88 with ECF02_2817; 6.4 with ECF04_1609; 6.73 with ECF15_524; 33.7 with ECF25_1645; 11.2 with ECF27_1331; 3.29 with ECF33_375.

B9: AS27_4265 (protein)
chain: MTGHPDVAEIADLAEGLLPTTRTTEVRQHLESCELCADVYASLTEIQGLLGTLPAPAPMPDDVAARIDAALAAEPPLGIADGTRVSRETSTPADRPAGHARPSSTGPGRKDRRRGGRRRIAVLGAVAAAAAIGIGSVVVSSLTEDSSSGNTAREQQTAIADTFSEGRLKDRVTNLVADGSAENGSRTPRSFGMESENGGETAENHVFKQPTVPECIRKGIGRDDAVIATEPGVYKGREALLVVLPDATNDTQVTAYIVETACVDQPAVGKAKILLEHSYARS
Take B9: the fold repression with ECF02_2817 came to 1.4; in the test with ECF04_1609, 2.44; in the test with ECF15_524, 2.74; in the test with ECF25_1645, 1.02; in the test with ECF27_1331, 3.78; with ECF33_375 it was 1.07.

B10: AS37_2513 (protein)
chain: MSSAPATKEEVDFALKVRRALDERAASLPDATTDRLAAARRAALARKKPDAAIVLVPALAGSAGTLELRPPGEPRKSLARRLARAWPLALLLAGLIGIAYWEDMQRTAELADIDAAMLSDNLPLTAYLDHGFNAYLSHTH
Turning to B10, the fold repression was 4.08 with ECF02_2817; 4.3 in the test with ECF04_1609; 4.06 with ECF15_524; 3.92 with ECF25_1645; 6.45 in the test with ECF27_1331; 2.48 in the test with ECF33_375.

B11: AS31_34 (protein)
chain: MNKEKLSDHLKSEWKKIDQTANPSIPNQKELLHQLSQMKAEYRKKLLQEIILFVFCALMVVSAAILAFTQAPAVFIVLQVCVLAVLPILIAAEKKRHLGECEVKRG
For the molecule B11, the fold repression with ECF02_2817 is 1.79; with ECF04_1609, 2.79; in the test with ECF15_524, 2.19; with ECF25_1645, 1.99; with ECF27_1331, 2.57; in the test with ECF33_375 it was 2.06.
